Results published in paper PMC5175346.

Columns and labels:
Experiment in all cases: fluorescence anisotropy
PriA Y335A = PriA Y335A (Escherichia coli, UniProt P17888 1-732, Y335A)
PriA Q330A = PriA Q330A (Escherichia coli, UniProt P17888 1-732, Q330A)
PriA R334A = PriA R334A (Escherichia coli, UniProt P17888 1-732, R334A)
PriA K328A = PriA K328A (Escherichia coli, UniProt P17888 1-732, K328A)
PriA Q329A = PriA Q329A (Escherichia coli, UniProt P17888 1-732, Q329A)
PriA W333A = PriA W333A (Escherichia coli, UniProt P17888 1-732, W333A)
PriA wt = PriA wt (Escherichia coli, UniProt P17888 1-732)

Measured: binding result

B1: two-stranded fork, structure #1 (1b-98/3L-98) (structured_DNA)
DNA 1: GCAAGCCTTCTACAGGTCGACCGTCCATGGCGACTCGAGACCGCAATACGGATAAGGGCTGAGCACGCCGACGAACATTCACCACGCCAGACCACGTA
DNA 2: GACTATCTACGTCCGAGGCTCGCGCCGCAGACTCATTTAGCCCTTATCCGTATTGCGGTCTCGAGTCGCCATGGACGGTCGACCTGTAGAAGGCTTGC
binds: all assays above
